{
  "source": "ChEMBL document CHEMBL4024756",
  "about": "“Identification of 4-Phenoxyquinoline Based Inhibitors for L1196M Mutant of Anaplastic Lymphoma Kinase by Structure-Based Design” (J Med Chem, 2017)",
  "proteins": {"B1": {"name": "ALK tyrosine kinase receptor (Homo sapiens), Q9UM73 L1196M (protein)", "chain": "MGAIGLLWLLPLLLSTAAVGSGMGTGQRAGSPAAGPPLQPREPLSYSRLQRKSLAVDFVVPSLFRVYARDLLLPPSSSELKAGRPEARGSLALDCAPLLRLLGPAPGVSWTAGSPAPAEARTLSRVLKGGSVRKLRRAKQLVLELGEEAILEGCVGPPGEAAVGLLQFNLSELFSWWIRQGEGRLRIRLMPEKKASEVGREGRLSAAIRASQPRLLFQIFGTGHSSLESPTNMPSPSPDYFTWNLTWIMKDSFPFLSHRSRYGLECSFDFPCELEYSPPLHDLRNQSWSWRRIPSEEASQMDLLDGPGAERSKEMPRGSFLLLNTSADSKHTILSPWMRSSSEHCTLAVSVHRHLQPSGRYIAQLLPHNEAAREILLMPTPGKHGWTVLQGRIGRPDNPFRVALEYISSGNRSLSAVDFFALKNCSEGTSPGSKMALQSSFTCWNGTVLQLGQACDFHQDCAQGEDESQMCRKLPVGFYCNFEDGFCGWTQGTLSPHTPQWQVRTLKDARFQDHQDHALLLSTTDVPASESATVTSATFPAPIKSSPCELRMSWLIRGVLRGNVSLVLVENKTGKEQGRMVWHVAAYEGLSLWQWMVLPLLDVSDRFWLQMVAWWGQGSRAIVAFDNISISLDCYLTISGEDKILQNTAPKSRNLFERNPNKELKPGENSPRQTPIFDPTVHWLFTTCGASGPHGPTQAQCNNAYQNSNLSVEVGSEGPLKGIQIWKVPATDTYSISGYGAAGGKGGKNTMMRSHGVSVLGIFNLEKDDMLYILVGQQGEDACPSTNQLIQKVCIGENNVIEEEIRVNRSVHEWAGGGGGGGGATYVFKMKDGVPVPLIIAAGGGGRAYGAKTDTFHPERLENNSSVLGLNGNSGAAGGGGGWNDNTSLLWAGKSLQEGATGGHSCPQAMKKWGWETRGGFGGGGGGCSSGGGGGGYIGGNAASNNDPEMDGEDGVSFISPLGILYTPALKVMEGHGEVNIKHYLNCSHCEVDECHMDPESHKVICFCDHGTVLAEDGVSCIVSPTPEPHLPLSLILSVVTSALVAALVLAFSGIMIVYRRKHQELQAMQMELQSPEYKLSKLRTSTIMTDYNPNYCFAGKTSSISDLKEVPRKNITLIRGLGHGAFGEVYEGQVSGMPNDPSPLQVAVKTLPEVCSEQDELDFLMEALIISKFNHQNIVRCIGVSLQSLPRFILMELMAGGDLKSFLRETRPRPSQPSSLAMLDLLHVARDIACGCQYLEENHFIHRDIAARNCLLTCPGPGRVAKIGDFGMARDIYRASYYRKGGCAMLPVKWMPPEAFMEGIFTSKTDTWSFGVLLWEIFSLGYMPYPSKSNQEVLEFVTSGGRMDPPKNCPGPVYRIMTQCWQHQPEDRPNFAIILERIEYCTQDPDVINTALPIEYGPLVEEEEKVPVRPKDPEGVPPLLVSQQAKREEERSPAAPPPLPTTSSGKAAKKPTAAEISVRVPRGPAVEGGHVNMAFSQSNPPSELHKVHGSRNKPTSLWNPTYGSWFTEKPTKKNNPIAKKEPHDRGNLGLEGSCTVPPNVATGRLPGASLLLEPSSLTANMKEVPLFRLRHFPCGNVNYGYQQQGLPLEAATAPGAGHYEDTILKSKNSMNQPGP"}},
  "settings_in_all_cases": "Homo sapiens",
  "key": {"[1]": {"substrate": "Cc1ccc(Oc2ccnc3cc(-c4cnn(C5CCNCC5)c4)ccc23)cc1"}, "[2]": {"substrate": "Cc1ccc(Oc2ccnc3cc(-c4cnn(C5CCNCC5)c4)ccc23)cc1", "remark": "listed apart in the source"}, "[3]": {"substrate": "Cc1ccc(Oc2ccnc3cc(-c4cnn(C5CCNCC5)c4)ccc23)cc1", "remark": "listed apart in the source"}, "[4]": {"substrate": "Cc1ccc(Oc2ccnc3cc(-c4cnn(C5CCNCC5)c4)ccc23)cc1", "remark": "listed apart in the source"}, "[5]": {"substrate": "Cc1ccc(Oc2ccnc3cc(-c4cnn(C5CCNCC5)c4)ccc23)cc1", "remark": "listed apart in the source"}},
  "data": [
    {"protein": "B1", "values": [
      {"measurement": "Km", "setting": "[1]", "value": 58.8, "unit": "µM"},
      {"measurement": "Km", "setting": "[2]", "value": 32.6, "unit": "µM"},
      {"measurement": "Km", "setting": "[3]", "value": 298, "unit": "µM"},
      {"measurement": "Km", "setting": "[4]", "value": 860, "unit": "µM"},
      {"measurement": "Km", "setting": "[5]", "value": 94.6, "unit": "µM"}
    ]}
  ]
}
